Results on two molecules are retold here after publication PMC11084668, “EGCG Disrupts the LIN28B/Let-7 Interaction and Reduces Neuroblastoma Aggressiveness”.

The target in data set [1] is T1, rLIN28B (LIN28B-Myc-His) (Homo sapiens, UniProt Q6ZN17 1-250).
T1 sequence: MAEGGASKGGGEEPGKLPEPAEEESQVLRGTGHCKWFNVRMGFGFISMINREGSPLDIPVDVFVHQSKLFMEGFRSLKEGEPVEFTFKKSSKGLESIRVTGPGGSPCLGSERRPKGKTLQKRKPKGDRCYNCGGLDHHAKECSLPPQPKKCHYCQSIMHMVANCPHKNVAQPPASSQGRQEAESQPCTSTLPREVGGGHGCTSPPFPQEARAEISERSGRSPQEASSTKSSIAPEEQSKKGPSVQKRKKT
Kind of data set: AlphaScreen; REMSA: 20 mM HEPES pH 7.5, 50 mM KCl, 0.5 ug BSA, 0.25% glycerol, room temperature, 1 h; AlphaScreen: dialysis buffer (Table S3, partly shown: 0.02% Tween, 0.1% BSA, 15% glycerol, pH 7.5?), room temperature, 90 min. To be noted: protein: recombinant; tags: C-terminal Myc-His; label: 5'-biotin. (In Alpha technology, singlet oxygen from a donor bead excites a nearby acceptor bead.)

The target in data set [2] is T1, rLIN28B (LIN28B-Myc-His). In words: AlphaScreen saturation binding; apparent Kd; n = 3, SD; REMSA: 20 mM HEPES pH 7.5, 50 mM KCl, 0.5 ug BSA, 0.25% glycerol, room temperature, 1 h; AlphaScreen: dialysis buffer (Table S3, partly shown: 0.02% Tween, 0.1% BSA, 15% glycerol, pH 7.5?), room temperature, 90 min. The settings on record: protein: recombinant; tags: C-terminal Myc-His; label: 5'-biotin.

As for GGCAUGAUACCACCCGGUACGGGC (structured_RNA) [Bi-pre-let-7g-mut], the binding result in the data set with rLIN28B (LIN28B-Myc-His) [1] is “no binding”.
In the case of GCUAUGAUACCACCCGGUACAGGAGC (structured_RNA) [Bi-pre-let-7g], in the data set with rLIN28B (LIN28B-Myc-His) [2], the Kd turned out to be 34.7 ± 3.6 nM.
